Where a chain is given by its changes, count along the chain named.
B1: 3h56-269-IgG1.1f (Fc fusion)
chain: EVQLLESGGGLVQPGGSLRLSCAASGFTFRDYEMWWVRQAPGKGLERVSAINPQGTRTYYADSVKGRFTISRDNSKNTLYLQMNSLRAEDTAVYYCAKLPFRFSDRGQGTLVTVSSASTEPKSCDKTHTCPPCPAPEAEGAPSVFLFPPKPKDTLMISRTPEVTCVVVDVSHEDPEVKFNWYVDGVEVHNAKTKPREEQYNSTYRVVSVLTVLHQDWLNGKEYKCKVSNKALPSSIEKTISKAKGQPREPQVYTLPPSREEMTKNQVSLTCLVKGFYPSDIAVEWESNGQPENNYKTTPPVLDSDGSFFLYSKLTVDKSRWQQGNVFSCSVMHEALHNHYTQKSLSLSPGK
B2: 3h56-269-IgG1.3f (Fc fusion)
chain: B1 chain with S234A, S235P

Biological target: T1, human-CD40-Fc (human, UniProt P25942 21-193)
T1 construct: generated in house; also called hCD40-Fc; not shown: Fc part of the in-house hCD40-Fc is not described
Assay: SPR, dAb-Fc on immobilized hCD40-Fc, apparent KD (avidity)

T1 sequence (P25942 21-193): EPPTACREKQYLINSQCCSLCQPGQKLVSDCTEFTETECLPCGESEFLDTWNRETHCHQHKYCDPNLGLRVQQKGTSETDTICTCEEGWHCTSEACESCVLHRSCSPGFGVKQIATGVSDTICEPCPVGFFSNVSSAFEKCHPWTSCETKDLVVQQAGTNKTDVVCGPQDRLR

| Kd [nM] | Binder |
| --- | --- |
| < 1 | B1 |
| < 1 | B2 |
